Here are results for one molecule from patent US20250262210A1 (TRUSTEES OF COLUMBIA UNIVERSITY IN THE CITY OF NEW YORK, published 2025).

Assay [1] concerns the target T1, UBE4B (human, UniProt O95155 1-1302, limits assumed).
T1 sequence (looked up): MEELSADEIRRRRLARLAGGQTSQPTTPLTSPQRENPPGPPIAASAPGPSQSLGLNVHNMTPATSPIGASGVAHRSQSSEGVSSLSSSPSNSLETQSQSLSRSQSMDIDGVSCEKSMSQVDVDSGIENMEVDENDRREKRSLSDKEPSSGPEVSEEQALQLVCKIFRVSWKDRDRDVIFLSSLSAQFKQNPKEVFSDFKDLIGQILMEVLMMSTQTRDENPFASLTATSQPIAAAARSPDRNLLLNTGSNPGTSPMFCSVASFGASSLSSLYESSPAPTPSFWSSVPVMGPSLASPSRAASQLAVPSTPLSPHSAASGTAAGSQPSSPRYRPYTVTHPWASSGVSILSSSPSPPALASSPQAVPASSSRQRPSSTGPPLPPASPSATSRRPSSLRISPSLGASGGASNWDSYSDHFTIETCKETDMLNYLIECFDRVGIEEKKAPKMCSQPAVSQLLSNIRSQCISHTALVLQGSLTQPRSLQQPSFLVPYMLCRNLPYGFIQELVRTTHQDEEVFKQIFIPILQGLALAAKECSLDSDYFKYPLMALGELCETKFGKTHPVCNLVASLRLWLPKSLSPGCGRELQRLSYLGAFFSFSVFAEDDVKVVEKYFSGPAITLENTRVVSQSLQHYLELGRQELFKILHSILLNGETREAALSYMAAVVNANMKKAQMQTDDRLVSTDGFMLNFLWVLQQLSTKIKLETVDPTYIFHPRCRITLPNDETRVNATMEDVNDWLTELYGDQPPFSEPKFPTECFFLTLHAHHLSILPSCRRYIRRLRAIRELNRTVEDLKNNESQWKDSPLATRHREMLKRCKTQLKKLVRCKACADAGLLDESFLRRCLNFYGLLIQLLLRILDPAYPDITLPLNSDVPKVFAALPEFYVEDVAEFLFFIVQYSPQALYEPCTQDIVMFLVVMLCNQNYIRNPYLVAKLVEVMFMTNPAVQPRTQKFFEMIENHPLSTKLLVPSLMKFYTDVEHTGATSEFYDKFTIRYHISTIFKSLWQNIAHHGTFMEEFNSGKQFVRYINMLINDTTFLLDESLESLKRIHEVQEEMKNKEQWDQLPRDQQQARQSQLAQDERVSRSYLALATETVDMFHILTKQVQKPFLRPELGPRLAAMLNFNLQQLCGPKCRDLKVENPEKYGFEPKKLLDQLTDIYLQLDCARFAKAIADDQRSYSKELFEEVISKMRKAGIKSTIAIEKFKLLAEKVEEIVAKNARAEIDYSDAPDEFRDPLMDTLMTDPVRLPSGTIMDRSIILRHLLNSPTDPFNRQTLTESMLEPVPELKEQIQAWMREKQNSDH
Nature of the assay: IP/MS, LZTR1 wild type-FLAG, U87. The gist of the method:
(§1)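 Gel slices were reduced with 5 mM DTT, alkylated with 11 mM IAA and digested overnight at 37° C. with trypsin. Peptides were analysed on an Orbitrap Fusion Tribrid by LC-MS/MS.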

In assay [2] the target is TUBGCP2 (human, UniProt Q9BSJ2 1-902, limits assumed). Nature of the assay: IP/MS, LZTR1 wild type-FLAG, U87. In outline:
as §1

Chain of TUBGCP2 (Q9BSJ2 whole entry): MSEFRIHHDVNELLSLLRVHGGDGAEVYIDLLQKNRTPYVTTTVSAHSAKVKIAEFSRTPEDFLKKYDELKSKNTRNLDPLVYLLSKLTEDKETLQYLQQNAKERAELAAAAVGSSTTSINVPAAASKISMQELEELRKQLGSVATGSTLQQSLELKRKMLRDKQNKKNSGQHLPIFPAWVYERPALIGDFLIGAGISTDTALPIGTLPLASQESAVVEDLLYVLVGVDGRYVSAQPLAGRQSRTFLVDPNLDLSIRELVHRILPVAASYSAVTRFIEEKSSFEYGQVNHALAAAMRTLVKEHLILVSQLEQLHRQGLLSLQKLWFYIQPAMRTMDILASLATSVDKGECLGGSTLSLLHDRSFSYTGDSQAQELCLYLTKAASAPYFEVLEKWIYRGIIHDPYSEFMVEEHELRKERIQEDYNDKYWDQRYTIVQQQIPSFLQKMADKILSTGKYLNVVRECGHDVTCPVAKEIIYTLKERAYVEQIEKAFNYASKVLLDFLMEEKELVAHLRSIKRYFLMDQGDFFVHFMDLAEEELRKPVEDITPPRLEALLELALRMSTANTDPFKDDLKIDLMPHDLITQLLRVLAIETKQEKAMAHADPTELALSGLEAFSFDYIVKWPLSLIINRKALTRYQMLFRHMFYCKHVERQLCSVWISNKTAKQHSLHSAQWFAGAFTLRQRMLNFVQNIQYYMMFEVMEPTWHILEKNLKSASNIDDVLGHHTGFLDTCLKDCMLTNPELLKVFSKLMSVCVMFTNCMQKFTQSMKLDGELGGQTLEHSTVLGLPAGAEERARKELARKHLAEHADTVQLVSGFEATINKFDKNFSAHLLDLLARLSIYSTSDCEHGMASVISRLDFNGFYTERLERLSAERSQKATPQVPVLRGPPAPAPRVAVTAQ

B1: LZTR1-FLAG (other, human, UniProt Q8N653 1-840, looked up)
chain: MAGPGSTGGQIGAAALAGGARSKVAPSVDFDHSCSDSVEYLTLNFGPFETVHRWRRLPPCDEFVGARRSKHTVVAYKDAIYVFGGDNGKTMLNDLLRFDVKDCSWCRAFTTGTPPAPRYHHSAVVYGSSMFVFGGYTGDIYSNSNLKNKNDLFEYKFATGQWTEWKIEGRLPVARSAHGATVYSDKLWIFAGYDGNARLNDMWTIGLQDRELTCWEEVAQSGEIPPSCCNFPVAVCRDKMFVFSGQSGAKITNNLFQFEFKDKTWTRIPTEHLLRGSPPPPQRRYGHTMVAFDRHLYVFGGAADNTLPNELHCYDVDFQTWEVVQPSSDSEVGGAEVPERACASEEVPTLTYEERVGFKKSRDVFGLDFGTTSAKQPTQPASELPSGRLFHAAAVISDAMYIFGGTVDNNIRSGEMYRFQFSCYPKCTLHEDYGRLWESRQFCDVEFVLGEKEECVQGHVAIVTARSRWLRRKITQARERLAQKLEQEAAPVPREAPGVAAGGARPPLLHVAIREAEARPFEVLMQFLYTDKIKYPRKGHVEDVLLIMDVYKLALSFQLCRLEQLCRQYIEASVDLQNVLVVCESAARLQLSQLKEHCLNFVVKESHFNQVIMMKEFERLSSPLIVEIVRRKQQPPPRTPLDQPVDIGTSLIQDMKAYLEGAGAEFCDITLLLDGHPRPAHKAILAARSSYFEAMFRSFMPEDGQVNISIGEMVPSRQAFESMLRYIYYGEVNMPPEDSLYLFAAPYYYGFYNNRLQAYCKQNLEMNVTVQNVLQILEAADKTQALDMKRHCLHIIVHQFTKVSKLPTLRSLSQQLLLDIIDSLASHISDKQCAELGADI
notes: Expressed in HEK 293T, HeLa or U87 cells; used as cell lysate; also called LZTR1 wild type-FLAG; LZTR1 WT; not shown: FLAG tag at the C-terminus
Regarding B1, the binding result in assay [1] and in assay [2] was “binds” each time.
